Legend:
[1] = test system: inflammatory bowel disease mouse model; assay: DSS-induced inflammatory bowel disease mouse model, intramuscular injection; assay type: in vivo
Text: Further, AmTARS was intramuscularly injected into the mouse model to confirm the anti-inflammatory efficacy thereof.

[2] = test system: TLR2-KO mice with DSS-induced colitis; assay: DSS-induced colitis in TLR2-deficient mice; assay type: in vivo, mouse
Experimental: We assessed the role of TLR2 in AmTARS function in vivo. To verify whether the binding between AmTARS and TLR2 actually acted on the anti-inflammatory effect of AmTARS, an inflammatory bowel disease mouse model was prepared from TLR2-deficient mice by way of the same method as in Example 5 and investigated for anti-inflammatory efficacy after the administration of AmTARS. TLR2-KO mice were slightly more susceptible to DSS-induced colitis than WT mice, as reported previously (Rakoff-Nahoum et al., 2004).

[3] = test system: BMDMs; assay: M2 macrophage polarization in BMDMs (CD206 flow cytometry); assay type: cell-based, mouse
Experimental: Since M2 macrophage polarization precedes production of anti-inflammatory cytokines such as IL-10, we assessed the effects of AmTARS on macrophage polarization. BMDMs were treated with PBS (negative control), LPS (to induce M1 polarization), or IL-4/IL-13 (to induce M2 polarization [positive control]) in the absence and presence of AmTARS, and the resulting M2 macrophage population was measured by flow cytometry using an antibody specific for the M2 macrophage surface marker CD206.

[4] = intramuscularly injected at 0.4 mg/kg or more

B1: Akkermansia muciniphila-derived threonyl-tRNA synthetase (TARS) (protein)
chain: MSEHKERKTLEERQQMSDLERLRHSCAHVLATAICRLWPDAQLAGGPAVDNGFYYDVELDHRISTEDFERIEEEMKKVVKENQVFQKEVISRADAMKMAESGELGALGPRSEPSRFKIDLLNDIPEDEEISLYRNGDFTDLCAGPHVGRTGNCKAFKIMSVASAFYKGDKNRPMLQRIYGTCFPNRTQLDEHLERLEEARRRDHRKLGRELGLFCIDESVGQGLILWKPKGALIRRSLQDFITEELDKLGYSQVYTPNIGKLDLYRTSGHFPYYQESQYAPIPERDAMEKLSQEGASCAELFNGLATGTIEGYMLKPMNCPHHIKIYANDAHSYRDLPVRLAEFGTVYRWEQSGELGGMTRVRGFTQDDAHIFCTPDQLAGEIRQCLGIVKTIFGTLGMTDYRVRLSMRDPESDKYVGSPENWDKAEQALREAAEWLGADYSEEAGEAAFYGPKIDFIVRDAIGREWQLGTVQVDYNLPERFDLHYTGADNKPHRPVMVHRAPFGSMERFTGLLIEHFEGKFPTWLSPEQVRVLPISDKVTDVAAAHRTALAARGVRVTVDETPDKIGAKIRNARLDRVPYMLVLGQREAEDGTVSVRHRDKGDLGAMPFEQFADLVAREIAERHISPVI
modifications: Akkermansia muciniphila TARS
damage to intestinal epithelial cells ([1]; intramuscular injection): alleviate the damage to intestinal epithelial cells | intestinal length of the mouse model [1, 4]: efficacy of decreasing the weight and intestinal length | weight of the mouse model [1, 4]: efficacy of decreasing the weight and intestinal length | colitis-induced body weight loss ([2]; TLR2-KO mice): did not improve | disease activity score ([2]; TLR2-KO mice): did not improve | B cells in the colon ([2]; TLR2-deficient mice): did not show efficacy of increasing B cells in the colon | amount of IgA ([2]; TLR2-deficient mice): a significant change in the amount of IgA could not be observed | increase in IL-10-secreting macrophage numbers ([2]; colitis TLR2-KO mice): did not induce | reduction in pro-inflammatory monocyte numbers ([2]; colitis TLR2-KO mice): did not induce | M2 polarization (CD206+) ([3]; LPS-treated BMDMs (M1 polarization)): significantly re-polarized LPS-induced M1 macrophages to M2 macrophages | M2 polarization (CD206+) ([3]; PBS-treated BMDMs): activated M2 polarization

From US12636342B2, “TARS derived from Akkermansia muciniphila or fragment thereof, and use thereof” (KOREA RESEARCH INSTITUTE OF BIOSCIENCE AND BIOTECHNOLOGY, priority 2020, dated 2026)
